Reference: publication PMC9064986

Experiments:
[1] = molecular target: T1, Recombinant human BMP10 growth factor (GF)-domain (R&D Systems), O95393; assay: SPR (Biacore); settings: chain shown with the change, BMP10 immobilised on a CM5 Biacore chip
T1 chain: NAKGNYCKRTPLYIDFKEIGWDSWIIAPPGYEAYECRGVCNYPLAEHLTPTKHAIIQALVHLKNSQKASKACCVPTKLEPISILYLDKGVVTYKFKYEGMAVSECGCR

[2] = molecular target: T2, BMP10 growth factor (GF)-domain from Pro:BMP10 made in HEK EBNA cells, O95393; assay: ELISA (prodomain displacement); settings: chain shown with the change; BMPRII ECD at 125x excess over Pro:BMP10; lower reading = more prodomain displaced; parent: est. 0.42; read off a plot
T2 chain: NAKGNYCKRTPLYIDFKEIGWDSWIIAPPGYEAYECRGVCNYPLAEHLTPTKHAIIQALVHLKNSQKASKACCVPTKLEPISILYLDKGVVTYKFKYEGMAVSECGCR

[3] = molecular target: T2, BMP10 growth factor (GF)-domain from …; assay: native PAGE prodomain displacement (densitometry); settings: chain shown with the change, lower ratio = more prodomain displaced, read off a plot

Kd ([1]; parent: 1.19E-06 M): 1170 nM
koff ([1]; parent: 1.61E-01 s-1): 0.0583 s⁻¹
other: OD reading, normalized to no BMPRII control [2]: 0.62
other: Pro:BMP10/prodomain ratio, normalized to no BMPRII control ([3]; BMPRII ECD at 2-fold excess (2x) over Pro:BMP10, parent: est. 0.59): 0.94
other: Pro:BMP10/prodomain ratio, normalized to no BMPRII control ([3]; BMPRII ECD at 5-fold excess (5x) over Pro:BMP10, parent: est. 0.46): 0.74
B1: BMPRII extracellular domain (ECD), wild type, Q13873-1 ΔGDP (del of Gly, Asp and Pro in the A-loop) (protein)
chain: SQNQERLCAFKDPYQQDLGIGESRISHENGTILCSKGSTCYGLWEKSKGDINLVKQGCWSHIQECHYEECVVTTTPPSIQNGTYRFCCCSTDLCNVNFTENFPPPDTTPLSPPHSFNRDET
